Laboratory results as given in paper PMC12650235, “Optimized Aptamer-Conjugated Gold Nanoparticles for Specific Detection of GII.4 Human Norovirus in Feces”.

Columns and labels:
[1] = tested on: GII.4 HuNoV VLP (VP1 capsid) (Human norovirus GII.4 Hu/GII.4/DBM15-156/2015); test: BLI; conditions: BLI: PBST + 5 mM Mg2+, biotin-aptamer 100 nM, VLP 18.75-150 nM, Octet RED96, ELASA: VLP 3 ug/mL, aptamer 1 uM, CD: 10 mM Tris-HCl pH 7.4, 1.0 mM NaCl, 0.05 mM …
[2] = tested on: GII.4 HuNoV VLP (VP1 capsid) (Human norovirus GII.4 Hu/GII.4/DBM15-156/2015); test: ELASA; conditions: BLI: PBST + 5 mM Mg2+, biotin-aptamer 100 nM, VLP 18.75-150 nM, Octet RED96; ELASA: VLP 3 ug/mL, aptamer 1 uM; CD: 10 mM Tris-HCl pH 7.4, 1.0 mM NaCl, 0.05 mM …
[3] = target: GII.2 HuNoV VLP (Human norovirus GII.2 Env/CHN/2016, UniProt A0A291L9K1 1-542); test: AuNP colorimetric competition; A620/A520 < 0.4; BLI: PBST + 5 mM Mg2+, biotin-aptamer 100 nM, VLP 18.75-150 nM, Octet RED96; ELASA: VLP 3 ug/mL, aptamer 1 uM; CD: 10 mM Tris-HCl pH 7.4, 1.0 mM NaCl, 0.05 mM MgCl2, room temperature; conditions: protein: recombinant; tags: His; chain copies: 180; label: biotin (5' in the colorimetric assay); stem-loops
[4] = target: GII.17 HuNoV VLP (Human norovirus GII.17 …, UniProt A0A0E3X5I8 1-540); test: as above; conditions: protein: recombinant; chain copies: 180; label: biotin (5' in the colorimetric assay); stem-loops

Molecule: AACACGACCCACGTACCTGTGCGAGACACAGACCACCAAGGTGGGC [AP4-11]
- Kd [1]: 2.28 nM

Molecule: AACACGACCCACGTACCTGTGTGAGACACAGACCACCAAGGTGGGC [AP4-11-2 (C22T)]
- binding signal (% of AP4-11 (46% loss)) [2]: 54
- Kd ([1]; 5 mM Mg2+, poor fit R2=0.86): 4.62 nM

Molecule: AACACGACCCACGTACCTGTGCGAGACACAGACCACCAAGGTGGGC (structured_DNA) [AP4-11]
- binding result [3]: no binding
- binding result [4]: no binding
